Results on five molecules are retold here after patent US5516685A, “Isolation and characterization of a novel protease from Streptomyces lividans” (Amgen Inc., priority 1994, dated 1996).

Like-named read-outs stand apart in the source and are kept apart here.

One series concerns Protease X. It is filed as biochemical, Streptomyces lividans. Conditions: for effect of additive on the protease's activity: additive at 20 mM. The method, then:
(§1) The characteristics of the protease reaction catalyzed by this enzyme were determined using the synthetic substrate assay where various synthetic substrates are dissolved at a concentration of 100 mg/ml in dimethylsulfoxide (DMSO). 200 μl aliquots from bacterial culture supernatants were mixed with 780 μl of 5 mM Tris, 25 mM NaCl, pH 7, and incubated at the desired temperature Digestions were then initiated by the addition of 20 μl of substrate and the rate of absorbance at 405 nm was followed for several minutes.
^a The assays were performed for 2 min. at 65° C. at pH 7.5.

Another series has as its system azocasein. Briefly: azocasein assay. In kind it is biochemical. The settings on record: longer incubation times. The method, then: After washing the column with buffer, the dialysed protein sample was loaded onto the column. The protein was eluted using a linear gradient of 0.0 to 0.5M NaCl. The eluate's A280 was monitored and 8 ml fractions were collected. […] Following the incubation, the assay reaction was terminated by the addition of 200 μl of 10% trichloroacetic acid and incubation at room temperature for several minutes. The solutions were then neutralized by adding 200 μl 0.2N NaOH to each sample. Samples were centrifuged 2 min. The supernatants were removed and the activity of the fractions was determined from the increase in absorbance at 420 nm.

A short description of series [1]: synthetic substrate assay of protease-containing S. lividans (pHL45) broth. Conditions: for Activity (dA/min): control broth activity subtracted. It is filed as biochemical. The procedure: as §1
Here, the broth from recombinant S. lividans containing pHL45, as well as the broth from an identical S. lividans culture containing a control plasmid only (pIJ699), were compared for proteolytic activity by directly assaying activity in the presence of several different substrates. This experiment was conducted at 37° C. pH 7.0 and 65° C. pH 7 5, in the presence of 10 mM calcium. The substrates tested were: succinyl-ala-ala-pro-phe-pNitroanilide, succinyl-tyr-leu-val-pNitroanilide, ala-pNitroanilide, and leu-pNitroanilide. […] The temperature optimum for the proteolytic reaction was determined using succinyl-ala-ala-pro-phe-pNitroanilide in 10 mM Tris, 25 mM NaCl, pH 7.0.

The subject of the next series is proteins. As to the kind of experiment: peptide mapping of the protease. In kind it is biochemical. The settings on record: fragments generated during peptide mapping of the protease.
[2] abbreviates: 20 mM additive, 2 min. at 65° C. at pH 7.5, 0.170 without additive.

As to `[Cl-].[Cl-].[Mg+2]` [MgCl2], in the series on Protease X (setting [2]), the “Protease activity (dA/min) in presence of additive” value (shortened to “Protease activity (dA/min)”) is 0.250 dA/min. Besides, the “effect of additive on the protease's activity” value in the series on Protease X (65° C., pH 7.5) is reported as “appears to enhance”.
Turning to `O=C(O)CN(CCN(CC(=O)O)CC(=O)O)CC(=O)O` [EDTA, reference compound], in the series with Protease X (pH 7.5), the “Protease activity (dA/min)” value amounted to 0.120 dA/min.
As for `O=S(=O)(F)Cc1ccccc1` [PMSF, reference compound], the “Protease activity (dA/min)” value in the series on Protease X (1 mM additive, 2 min. at 65° C. at pH 7.5, 0.170 without additive) was 0.000 dA/min. Besides, in the series with Protease X (addition of PMSF, 65° C., pH 7.5), the “effect of additive on the protease reaction” value was “totally inhibited”.
With `[Ca+2].[Cl-].[Cl-]` [CaCl2], the “Protease activity (dA/min)” value was 0.235 dA/min in the series with Protease X (5 mM additive, 2 min. at 65° C. at pH 7.5, 0.170 without additive) and 0.251 dA/min with Protease X (setting [2]). Besides, in the series on Protease X (65° C., pH 7.5), the “effect of additive on the protease's activity” value is given as “enhanced”.

B1: Protease X: novel protease [SEQ ID NO: 2] secreted into the culture medium by S. lividans (protein)
chain: MRITLPLLSTAVGLGLTAAVLGTGPAATAAAPQEPVRAAQLGYQPSAGSGEDAAANRAFFEAVVKSVAEKRAANPSAAAAVTVYYSATNAPSFRSQISRSAQIWNSSVSNVRLAESSSGADFAYYEGNDSRGSYASTDGHGSGYIFLDYRQNQQYDSTRVTAHETGHVLGLPDHYSGPCSELMSGGGPGPSCTNPYPNSTERSRVNQLWAYGFQAALDKALEKASQR
For the molecule B1, the “temperature optimum in the azocasein assay” value in the series on azocasein amounted to 60 °C. Moreover, the “temperature optimum for cleavage of succinyl-ala-ala-pro-phe-pNitroanilide” value in series [1] (10 mM Tris, 25 mM NaCl, pH 7.0) is 65 °C. Further, the “time for which catalytic rate remains linear” value in series [1] (65° C.) is on record as “at least 2 min”. The pH optimum in series [1] (65° C. reaction) is recorded as 7.5 pH. The “thermal stability of the activity” value in series [1] (70° C., initial catalytic rate very fast, enzyme apparently becomes denatured) is listed as “activity drops off dramatically”. Also, the “Activity (dA/min)” value amounted to 0.008 dA/min in series [1] (Temperature 30.000, 10 mM Tris, 25 mM NaCl, pH 7.0); 0.017 dA/min in series [1] (Temperature 40.000, 10 mM Tris, 25 mM NaCl, pH 7.0); 0.042 dA/min in series [1] (Temperature 50.000, 10 mM Tris, 25 mM NaCl, pH 7.0); 0.074 dA/min in series [1] (Temperature 60.000, 10 mM Tris, 25 mM NaCl, pH 7.0); 0.085 dA/min in series [1] (Temperature 65.000, 10 mM Tris, 25 mM NaCl, pH 7.0); 0.047 dA/min in series [1] (Temperature 70.000, 10 mM Tris, 25 mM NaCl, pH 7.0). Further, the “Activity (dA/min)” value in series [1] (no additive, 2 min. at 65° C. at pH 7.5) is 0.170 dA/min; in series [1] (pH 6.000, 65° C. reaction), 0.048 dA/min; in series [1] (pH 7.000, 65° C. reaction), 0.085 dA/min; in series [1] (pH 7.500, 65° C. reaction), 0.190 dA/min; in series [1] (pH 8.000, 65° C. reaction), 0.105 dA/min. In addition, the “proteolytic activity on substrate compared with control broth (pIJ699)” value in series [1] (only substrate of four tested, 37° C. pH 7.0 and 65° C. pH 7 5, 10 mM calcium) is “showed activity above that of the control”. The cleavage site preference entry in the series on proteins is reported as “preferentially processes proteins amino-terminally of tyrosine”.
